Test results reported in patent US6387638.
Ends that are not written are not given here.

B1: HRG-β1 EGF variant B5, phage-displayed (ligand)
chain: SHLVKCGWDREGFCVNGGECFMVKDLSNPSRYLCKCPNEFTGDRCQNYVIAS
modifications: not fully specified; cysteine pairing not given here
notes: pHRG8-g3 scaffold; not shown: Display carrier only: the (GGGS)3 linker and the M13 pIII C-terminal fragment from residue 323
B2: HRG-β1 EGF variant B10, phage-displayed (ligand)
chain: SHLVKCDKSREGFCVNGGECFMVKDLSNPSRYLCKCPNEFTGDRCQNYVIAS
modifications: not fully specified; cysteine pairing not given here
notes: as for B1
B3: HRG-β1 EGF variant D1, phage-displayed (ligand)
chain: SHLVKCAEKEKTFCVNGGECYKVRILSNPSRYLCKCPNEFTGDRCQNYVIAS
modifications: not fully specified; cysteine pairing not given here
notes: as for B1
B4: HRG-β1 EGF variant D10, phage-displayed (ligand)
chain: SHLVKCAEKEKTFCVNGGECYMVKTLSNPSRYLCKCPNEFTGDRCQNYVMAS
modifications: not fully specified; cysteine pairing not given here
notes: as for B1
B5: HRG-β1 EGF variant E3, phage-displayed (ligand)
chain: SHLVKCAEKEKTFCVNGGECFMVKDYRYRMCKCPNEFTGDRCQNYVIAS
modifications: not fully specified; cysteine pairing not given here
notes: not shown: Display carrier only: the (GGGS)3 linker and the M13 pIII C-terminal fragment from residue 323
B6: HRG-β1 EGF variant E6, phage-displayed (ligand)
chain: SHLVKCAEKEKTFCVNGGECFMVKDTHYRMCKCPNEFTGDRCQNYVMAS
modifications: not fully specified; cysteine pairing not given here
notes: as for B5
B7: HRG90: HRG-β1 EGF Met226Ile, phage-displayed (ligand, phage M13)
chain: SHLVKCAEKEKTFCVNGGECFMVKDLSNPSRYLCKCPNEFTGDRCQNYVIASGGGSGGGSGGGSNSQMAQVGDGDNSPLMNNFRQYLPSLPQSVECRPFVFSAGKPYEFSIDCDKINLFRGVFAFLLYVATFMYVFSTFANILRNKES
notes: range 323-end
B8: combination variant HRG48, phage-displayed (ligand)
chain: SHLVKCAEKEKTFCVNGGECFMVKDYGYLMCKCPNEFTGDRCQNYVIAS
modifications: not fully specified; cysteine pairing not given here
notes: not shown: Display carrier: (GGGS)3 linker and M13 pIII C-terminal fragment from residue 323
B9: combination variant HRG53, phage-displayed (ligand)
chain: SHLVKCGEEREGFCVNGGECYRVKTLSNPSRYLCKCPNEFTGDRCQNYVMAS
modifications: not fully specified; cysteine pairing not given here
notes: as for B8
B10: combination variant HRG54, phage-displayed (ligand)
chain: SHLVKCGEEREGFCVNGGECFMVKDYGYLMCKCPNEFTGDRCQNYVMAS
modifications: not fully specified; cysteine pairing not given here
notes: as for B8
B11: combination variant HRG55, phage-displayed (ligand)
chain: SHLVKCGEEREGFCVNGGECYRVKTYGYLMCKCPNEFTGDRCQNYVMAS
modifications: not fully specified; cysteine pairing not given here
notes: as for B8
B12: combination variant HRG56, phage-displayed (ligand)
chain: SHLVKCGEEREGFCVNGGECFMVKDLSNPSRYLCKCPNEFTGDRCQNYVIAS
modifications: not fully specified; cysteine pairing not given here
notes: as for B8
B13: combination variant HRG57, phage-displayed (ligand)
chain: SHLVKCAEKEKTFCVNGGECYRVKTYGYLMCKCPNEFTGDRCQNYVMAS
modifications: not fully specified; cysteine pairing not given here
notes: as for B8
B14: combination variant HRG59, phage-displayed (ligand)
chain: SHLVKCAEKEKTFCVNGGECYRVKTLSNPSRYLCKCPNEFTGDRCQNYVIAS
modifications: not fully specified; cysteine pairing not given here
notes: as for B8

Biological target: ErbB-3 receptor-Ig fusion (homodimer) (human, UniProt P21860 20-643; P21860 20-636)
Sequence (P21860 other isoform, or with tags, fused parts or gaps): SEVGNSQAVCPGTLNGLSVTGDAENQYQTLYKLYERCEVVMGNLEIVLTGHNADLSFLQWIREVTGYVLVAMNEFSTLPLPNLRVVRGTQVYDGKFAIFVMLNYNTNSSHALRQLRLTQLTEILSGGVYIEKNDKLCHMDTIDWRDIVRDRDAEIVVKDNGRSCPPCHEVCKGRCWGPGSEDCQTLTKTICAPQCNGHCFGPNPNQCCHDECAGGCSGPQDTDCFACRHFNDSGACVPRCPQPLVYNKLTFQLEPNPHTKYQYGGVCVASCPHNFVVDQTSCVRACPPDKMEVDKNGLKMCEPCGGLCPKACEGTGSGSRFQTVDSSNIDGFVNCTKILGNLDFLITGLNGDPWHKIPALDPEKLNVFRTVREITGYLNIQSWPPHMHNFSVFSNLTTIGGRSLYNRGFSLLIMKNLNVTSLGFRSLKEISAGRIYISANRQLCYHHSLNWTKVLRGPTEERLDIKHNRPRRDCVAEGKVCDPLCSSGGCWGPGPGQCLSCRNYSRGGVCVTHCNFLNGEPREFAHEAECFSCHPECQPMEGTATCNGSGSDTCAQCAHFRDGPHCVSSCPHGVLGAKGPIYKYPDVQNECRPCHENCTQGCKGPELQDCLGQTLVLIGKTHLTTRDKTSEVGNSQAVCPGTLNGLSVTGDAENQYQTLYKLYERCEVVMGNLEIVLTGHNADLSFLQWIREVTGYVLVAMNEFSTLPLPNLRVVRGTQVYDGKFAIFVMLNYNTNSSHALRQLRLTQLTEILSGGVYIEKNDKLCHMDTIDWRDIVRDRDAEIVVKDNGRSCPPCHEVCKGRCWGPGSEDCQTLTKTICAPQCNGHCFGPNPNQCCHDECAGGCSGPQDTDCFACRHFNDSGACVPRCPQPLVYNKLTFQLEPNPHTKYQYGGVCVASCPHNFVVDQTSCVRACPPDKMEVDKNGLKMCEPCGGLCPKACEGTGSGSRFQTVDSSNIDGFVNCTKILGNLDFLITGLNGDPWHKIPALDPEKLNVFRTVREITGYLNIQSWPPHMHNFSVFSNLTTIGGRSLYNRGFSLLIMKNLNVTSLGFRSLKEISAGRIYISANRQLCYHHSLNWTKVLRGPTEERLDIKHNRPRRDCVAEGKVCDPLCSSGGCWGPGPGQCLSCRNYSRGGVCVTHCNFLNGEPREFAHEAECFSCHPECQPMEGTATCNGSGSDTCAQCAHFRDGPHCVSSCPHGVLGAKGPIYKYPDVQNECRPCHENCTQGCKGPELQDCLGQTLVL
Assay: phage ELISA, soluble ErbB-3-Ig as competitor

| Binder | EC50(wt)/EC50(mut) |
| --- | --- |
| B1 | 26 ratio |
| B2 | 9.3 ratio |
| B3 | 11 ratio |
| B4 | 2.1 ratio |
| B5 | 16 ratio |
| B6 | 6.6 ratio |
| B7 | 6.3 ratio |
| B8 | 49 ratio |
| B9 | 26 ratio |
| B10 | 12 ratio |
| B11 | 13 ratio |
| B12 | 31 ratio |
| B13 | 24 ratio |
| B14 | 26 ratio |
